# Measured values: article PMC9889334
# Experiments:
# [1] = target: CBKP2, PaKEOPS complex with PaPcc2 in place of PaPcc1 (PaCgi121/PaBud32/PaKae1/PaPcc2) (Pyrococcus abyssi) (UniProt Q9UXT7); assay: SEC-SAXS; purified complexes loaded at 2.55 (CBKP1P2), 0.72 (CBKP1) and 3 mg/ml (CBKP2) on a Bio-SEC3 column; 20 mM Tris pH 8.5, 300 mM NaCl, 5 mM 2-mercaptoethanol, 5% glycerol
# [2] = target: PaCgi121;PaBud32;PaKae1;PaPcc1-His6;PaPcc2-Strep (Pyrococcus abyssi;Pyrococcus abyssi;Pyrococcus abyssi;Pyrococcus abyssi;Pyrococcus abyssi) (UniProt Q9UZ62+Q9UYB9+Q9UXT7+Q9V1Z9+A0A915Q984); assay: fluorescence anisotropy; settings: CBKP1P2 complex; 3 mM Mg2+; n=3; 20 mM Tris-HCl pH 8, 150 mM KCl, 3 mM MgCl2, 1% glycerol, 1 nM labelled tRNA (10 nM in Suppl. Fig. 7C), 20 °C, 15 min
# [3] = target: PaCgi121;PaBud32;PaKae1;PaPcc2-His6 (Pyrococcus abyssi;Pyrococcus abyssi;Pyrococcus abyssi;Pyrococcus abyssi) (UniProt Q9UZ62+Q9UYB9+Q9UXT7+A0A915Q983); assay: fluorescence anisotropy; settings: CBKP2 complex; 3 mM Mg2+; 10 nM tRNA (Suppl. Fig. 7C); 20 mM Tris-HCl pH 8, 150 mM KCl, 3 mM MgCl2, 1% glycerol, 1 nM labelled tRNA (10 nM in Suppl. Fig. 7C), 20 °C, 15 min
# PaCgi121;PaBud32;PaKae1;PaPcc2-His6 (Pyrococcus abyssi;Pyrococcus abyssi;Pyrococcus abyssi;Pyrococcus abyssi), sequence (Q9UZ62 whole entry, chain 1 of 4): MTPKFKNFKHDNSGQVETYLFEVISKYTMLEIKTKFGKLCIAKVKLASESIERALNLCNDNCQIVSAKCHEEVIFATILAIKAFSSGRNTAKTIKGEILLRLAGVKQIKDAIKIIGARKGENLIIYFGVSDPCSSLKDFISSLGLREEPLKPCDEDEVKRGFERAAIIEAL
# PaCgi121;PaBud32;PaKae1;PaPcc2-His6 (Pyrococcus abyssi;Pyrococcus abyssi;Pyrococcus abyssi;Pyrococcus abyssi), sequence (Q9UYB9 whole entry, chain 2 of 4): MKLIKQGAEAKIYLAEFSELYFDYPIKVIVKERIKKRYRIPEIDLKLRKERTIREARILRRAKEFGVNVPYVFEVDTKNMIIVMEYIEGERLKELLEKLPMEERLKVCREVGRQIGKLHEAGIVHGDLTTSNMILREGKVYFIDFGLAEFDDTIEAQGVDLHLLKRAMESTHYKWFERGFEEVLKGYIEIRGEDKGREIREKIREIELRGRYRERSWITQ
# PaCgi121;PaBud32;PaKae1;PaPcc2-His6 (Pyrococcus abyssi;Pyrococcus abyssi;Pyrococcus abyssi;Pyrococcus abyssi), sequence (Q9UXT7 whole entry, chain 3 of 4): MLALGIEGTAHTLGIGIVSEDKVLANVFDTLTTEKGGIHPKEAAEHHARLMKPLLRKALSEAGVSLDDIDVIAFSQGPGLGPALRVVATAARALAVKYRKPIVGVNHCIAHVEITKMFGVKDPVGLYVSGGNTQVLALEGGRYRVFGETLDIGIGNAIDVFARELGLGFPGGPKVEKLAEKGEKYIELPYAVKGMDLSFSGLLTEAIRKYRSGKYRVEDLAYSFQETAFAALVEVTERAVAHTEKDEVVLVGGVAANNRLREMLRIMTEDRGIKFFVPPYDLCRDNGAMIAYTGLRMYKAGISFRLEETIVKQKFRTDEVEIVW
# PaCgi121;PaBud32;PaKae1;PaPcc2-His6 (Pyrococcus abyssi;Pyrococcus abyssi;Pyrococcus abyssi;Pyrococcus abyssi), sequence (chain, as listed by the source, chain 4 of 4): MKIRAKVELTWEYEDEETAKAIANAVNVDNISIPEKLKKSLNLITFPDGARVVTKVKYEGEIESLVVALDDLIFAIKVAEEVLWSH
# [4] = target: PaPcc2 with C-terminal hexa-histidine tag (Pyrococcus abyssi Pcc2) (Pyrococcus abyssi); assay: SEC; Ni-NTA eluate on HiLoad 16/600 Superdex 200 pg or Superdex 75 pg; 20 mM Tris-HCl pH 8, 500 mM KCl, 10% glycerol, 5 mM ß-mercaptoethanol
substance,measurement,setting,value
"CBKP2, PaKEOPS complex with PaPcc2 in place of PaPcc1 (PaCgi121/PaBud32/PaKae1/PaPcc2) (from UniProt Q9UXT7 1-324)",stoichiometry N,[1],2
GGGCCGGUAGCUCAGCCUGGUCAGAGCACCGGGCUUUUAACCCGGUGGUCGCGGGUUCAAAUCCCGCCCGGCCCGCCA [Pa_tRNALys (UUU)],Kd,[2],100 nM
same,Kd,[3],1800 nM
PaPcc2 with C-terminal hexa-histidine tag (Pyrococcus abyssi Pcc2) (natural protein),stoichiometry N,[4],2
